Results taken from patent US20220204580A1 (AstraZeneca / MedImmune, published 2022).
Numbered stars: 1 amine (or outer) side, 2 acyl side, 3 side chain; on linkers, the order of the positions; unused ones are H or OH. Bridge positions count the residues as written; N and C are the ends. Square brackets hold non-standard residues; d marks the D form. Side chains are listed from the residue outwards. Ends that are not written are not given here. * marks the point of attachment. C18 diacid = O=C(O)CCCCCCCCCCCCCCCCC(=O)*; γGlu = O=C(O)[C@H](CCC(=O)[*:2])N[*:1]; Aib = CC(C)(N)C(=O)O

T1: human amylin receptor (calcitonin receptor co-expressed with receptor activity modifying protein, RAMP3) (human, UniProt P30988 25-474; O60896 24-148)
T1 sequence (looked up) 1: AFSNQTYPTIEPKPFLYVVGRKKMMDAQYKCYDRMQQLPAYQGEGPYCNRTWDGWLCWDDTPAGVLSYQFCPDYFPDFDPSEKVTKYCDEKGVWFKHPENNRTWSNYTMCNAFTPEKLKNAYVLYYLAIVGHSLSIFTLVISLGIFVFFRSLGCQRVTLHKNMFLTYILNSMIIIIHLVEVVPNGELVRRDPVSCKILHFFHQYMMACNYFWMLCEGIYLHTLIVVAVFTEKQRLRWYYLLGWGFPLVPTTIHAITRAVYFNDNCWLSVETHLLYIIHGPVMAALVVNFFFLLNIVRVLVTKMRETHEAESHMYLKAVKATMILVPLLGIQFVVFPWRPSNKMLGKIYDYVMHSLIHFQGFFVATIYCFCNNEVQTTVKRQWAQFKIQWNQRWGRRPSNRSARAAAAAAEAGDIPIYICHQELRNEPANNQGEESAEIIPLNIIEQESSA
T1 sequence (looked up) 2: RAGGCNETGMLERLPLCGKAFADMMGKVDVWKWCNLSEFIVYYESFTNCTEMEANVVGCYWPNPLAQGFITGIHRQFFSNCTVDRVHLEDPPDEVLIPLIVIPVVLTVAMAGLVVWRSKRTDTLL

T2: human calcitonin receptor (human, UniProt P30988 25-474)
T2 sequence (looked up): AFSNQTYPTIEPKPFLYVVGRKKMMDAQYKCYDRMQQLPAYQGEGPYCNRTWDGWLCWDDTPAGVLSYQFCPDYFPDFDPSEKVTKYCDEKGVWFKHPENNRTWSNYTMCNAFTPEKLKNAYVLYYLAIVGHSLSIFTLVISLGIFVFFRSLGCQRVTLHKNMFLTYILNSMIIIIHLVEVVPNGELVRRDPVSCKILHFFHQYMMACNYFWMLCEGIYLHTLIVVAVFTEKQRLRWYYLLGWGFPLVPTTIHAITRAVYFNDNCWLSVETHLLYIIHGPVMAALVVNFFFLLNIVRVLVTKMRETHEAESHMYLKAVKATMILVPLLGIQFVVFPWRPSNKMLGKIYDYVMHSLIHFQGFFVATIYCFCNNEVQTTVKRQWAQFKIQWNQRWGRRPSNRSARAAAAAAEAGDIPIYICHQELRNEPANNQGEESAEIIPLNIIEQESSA

B1: Peptide 59 (SEQ ID NO: 59) (peptide)
peptide: K([γGlu-C18 diacid])CNTATCATQRLANFLVHSS[Aib]NFGPI[dL]PPTNVGSNTY-NH2
modifications: disulfide 2-7; N-terminus assumed
SMILES: CC[C@H](C)[C@H](NC(=O)[C@@H]1CCCN1C(=O)CNC(=O)[C@H](Cc1ccccc1)NC(=O)[C@H](CC(N)=O)NC(=O)C(C)(C)NC(=O)[C@H](CO)NC(=O)[C@H](CO)NC(=O)[C@H](Cc1c[nH]cn1)NC(=O)[C@@H](NC(=O)[C@H](CC(C)C)NC(=O)[C@H](Cc1ccccc1)NC(=O)[C@H](CC(N)=O)NC(=O)[C@H](C)NC(=O)[C@H](CC(C)C)NC(=O)[C@H](CCCNC(=N)N)NC(=O)[C@H](CCC(N)=O)NC(=O)[C@@H](NC(=O)[C@H](C)NC(=O)[C@@H]1CSSC[C@H](NC(=O)[C@@H](N)CCCCNC(=O)CC[C@H](NC(=O)CCCCCCCCCCCCCCCCC(=O)O)C(=O)O)C(=O)N[C@@H](CC(N)=O)C(=O)N[C@@H]([C@@H](C)O)C(=O)N[C@@H](C)C(=O)N[C@@H]([C@@H](C)O)C(=O)N1)[C@@H](C)O)C(C)C)C(=O)N[C@H](CC(C)C)C(=O)N1CCC[C@H]1C(=O)N1CCC[C@H]1C(=O)N[C@H](C(=O)N[C@@H](CC(N)=O)C(=O)N[C@H](C(=O)NCC(=O)N[C@@H](CO)C(=O)N[C@@H](CC(N)=O)C(=O)N[C@H](C(=O)N[C@@H](Cc1ccc(O)cc1)C(N)=O)[C@@H](C)O)C(C)C)[C@@H](C)O
B2: Peptide 60 (SEQ ID NO: 60) (peptide)
peptide: K([γGlu-C18 diacid])CNTATCATQRLANFLVHSS[Aib]NFGPIL[dP]PTNVGSNTY-NH2
modifications: disulfide 2-7; N-terminus assumed
SMILES: CC[C@H](C)[C@H](NC(=O)[C@@H]1CCCN1C(=O)CNC(=O)[C@H](Cc1ccccc1)NC(=O)[C@H](CC(N)=O)NC(=O)C(C)(C)NC(=O)[C@H](CO)NC(=O)[C@H](CO)NC(=O)[C@H](Cc1c[nH]cn1)NC(=O)[C@@H](NC(=O)[C@H](CC(C)C)NC(=O)[C@H](Cc1ccccc1)NC(=O)[C@H](CC(N)=O)NC(=O)[C@H](C)NC(=O)[C@H](CC(C)C)NC(=O)[C@H](CCCNC(=N)N)NC(=O)[C@H](CCC(N)=O)NC(=O)[C@@H](NC(=O)[C@H](C)NC(=O)[C@@H]1CSSC[C@H](NC(=O)[C@@H](N)CCCCNC(=O)CC[C@H](NC(=O)CCCCCCCCCCCCCCCCC(=O)O)C(=O)O)C(=O)N[C@@H](CC(N)=O)C(=O)N[C@@H]([C@@H](C)O)C(=O)N[C@@H](C)C(=O)N[C@@H]([C@@H](C)O)C(=O)N1)[C@@H](C)O)C(C)C)C(=O)N[C@@H](CC(C)C)C(=O)N1CCC[C@@H]1C(=O)N1CCC[C@H]1C(=O)N[C@H](C(=O)N[C@@H](CC(N)=O)C(=O)N[C@H](C(=O)NCC(=O)N[C@@H](CO)C(=O)N[C@@H](CC(N)=O)C(=O)N[C@H](C(=O)N[C@@H](Cc1ccc(O)cc1)C(N)=O)[C@@H](C)O)C(C)C)[C@@H](C)O
B3: Peptide 61 (SEQ ID NO: 61) (peptide)
peptide: K([γGlu-C18 diacid])CNTATCATQRLANFLVHSS[Aib]NFGP[dI]LPPTNVGSNTY-NH2
modifications: disulfide 2-7; N-terminus assumed
SMILES: CC[C@@H](C)[C@@H](NC(=O)[C@@H]1CCCN1C(=O)CNC(=O)[C@H](Cc1ccccc1)NC(=O)[C@H](CC(N)=O)NC(=O)C(C)(C)NC(=O)[C@H](CO)NC(=O)[C@H](CO)NC(=O)[C@H](Cc1c[nH]cn1)NC(=O)[C@@H](NC(=O)[C@H](CC(C)C)NC(=O)[C@H](Cc1ccccc1)NC(=O)[C@H](CC(N)=O)NC(=O)[C@H](C)NC(=O)[C@H](CC(C)C)NC(=O)[C@H](CCCNC(=N)N)NC(=O)[C@H](CCC(N)=O)NC(=O)[C@@H](NC(=O)[C@H](C)NC(=O)[C@@H]1CSSC[C@H](NC(=O)[C@@H](N)CCCCNC(=O)CC[C@H](NC(=O)CCCCCCCCCCCCCCCCC(=O)O)C(=O)O)C(=O)N[C@@H](CC(N)=O)C(=O)N[C@@H]([C@@H](C)O)C(=O)N[C@@H](C)C(=O)N[C@@H]([C@@H](C)O)C(=O)N1)[C@@H](C)O)C(C)C)C(=O)N[C@@H](CC(C)C)C(=O)N1CCC[C@H]1C(=O)N1CCC[C@H]1C(=O)N[C@H](C(=O)N[C@@H](CC(N)=O)C(=O)N[C@H](C(=O)NCC(=O)N[C@@H](CO)C(=O)N[C@@H](CC(N)=O)C(=O)N[C@H](C(=O)N[C@@H](Cc1ccc(O)cc1)C(N)=O)[C@@H](C)O)C(C)C)[C@@H](C)O
B4: Peptide 62 (SEQ ID NO: 62) (peptide)
peptide: K([γGlu-C18 diacid])CNTATCATQRLANF[dL]VHSS[Aib]NFGPILPPTNVGSNTY-NH2
modifications: disulfide 2-7; N-terminus assumed
SMILES: CC[C@H](C)[C@H](NC(=O)[C@@H]1CCCN1C(=O)CNC(=O)[C@H](Cc1ccccc1)NC(=O)[C@H](CC(N)=O)NC(=O)C(C)(C)NC(=O)[C@H](CO)NC(=O)[C@H](CO)NC(=O)[C@H](Cc1c[nH]cn1)NC(=O)[C@@H](NC(=O)[C@@H](CC(C)C)NC(=O)[C@H](Cc1ccccc1)NC(=O)[C@H](CC(N)=O)NC(=O)[C@H](C)NC(=O)[C@H](CC(C)C)NC(=O)[C@H](CCCNC(=N)N)NC(=O)[C@H](CCC(N)=O)NC(=O)[C@@H](NC(=O)[C@H](C)NC(=O)[C@@H]1CSSC[C@H](NC(=O)[C@@H](N)CCCCNC(=O)CC[C@H](NC(=O)CCCCCCCCCCCCCCCCC(=O)O)C(=O)O)C(=O)N[C@@H](CC(N)=O)C(=O)N[C@@H]([C@@H](C)O)C(=O)N[C@@H](C)C(=O)N[C@@H]([C@@H](C)O)C(=O)N1)[C@@H](C)O)C(C)C)C(=O)N[C@@H](CC(C)C)C(=O)N1CCC[C@H]1C(=O)N1CCC[C@H]1C(=O)N[C@H](C(=O)N[C@@H](CC(N)=O)C(=O)N[C@H](C(=O)NCC(=O)N[C@@H](CO)C(=O)N[C@@H](CC(N)=O)C(=O)N[C@H](C(=O)N[C@@H](Cc1ccc(O)cc1)C(N)=O)[C@@H](C)O)C(C)C)[C@@H](C)O
B5: Peptide 63 (SEQ ID NO: 63) (peptide)
peptide: K([γGlu-C18 diacid])CNTATCATQRLANFLVHSS[Aib]NFGPILPPTRVGSNTY-NH2
modifications: disulfide 2-7; N-terminus assumed
SMILES: CC[C@H](C)[C@H](NC(=O)[C@@H]1CCCN1C(=O)CNC(=O)[C@H](Cc1ccccc1)NC(=O)[C@H](CC(N)=O)NC(=O)C(C)(C)NC(=O)[C@H](CO)NC(=O)[C@H](CO)NC(=O)[C@H](Cc1c[nH]cn1)NC(=O)[C@@H](NC(=O)[C@H](CC(C)C)NC(=O)[C@H](Cc1ccccc1)NC(=O)[C@H](CC(N)=O)NC(=O)[C@H](C)NC(=O)[C@H](CC(C)C)NC(=O)[C@H](CCCNC(=N)N)NC(=O)[C@H](CCC(N)=O)NC(=O)[C@@H](NC(=O)[C@H](C)NC(=O)[C@@H]1CSSC[C@H](NC(=O)[C@@H](N)CCCCNC(=O)CC[C@H](NC(=O)CCCCCCCCCCCCCCCCC(=O)O)C(=O)O)C(=O)N[C@@H](CC(N)=O)C(=O)N[C@@H]([C@@H](C)O)C(=O)N[C@@H](C)C(=O)N[C@@H]([C@@H](C)O)C(=O)N1)[C@@H](C)O)C(C)C)C(=O)N[C@@H](CC(C)C)C(=O)N1CCC[C@H]1C(=O)N1CCC[C@H]1C(=O)N[C@H](C(=O)N[C@@H](CCCNC(=N)N)C(=O)N[C@H](C(=O)NCC(=O)N[C@@H](CO)C(=O)N[C@@H](CC(N)=O)C(=O)N[C@H](C(=O)N[C@@H](Cc1ccc(O)cc1)C(N)=O)[C@@H](C)O)C(C)C)[C@@H](C)O
B6: Peptide 64 (SEQ ID NO: 64) (peptide)
peptide: K([γGlu-C18 diacid])CNTATCATQRLANFLVHSS[Aib]NFGPILPPTNVGSRTY-NH2
modifications: disulfide 2-7; N-terminus assumed
SMILES: CC[C@H](C)[C@H](NC(=O)[C@@H]1CCCN1C(=O)CNC(=O)[C@H](Cc1ccccc1)NC(=O)[C@H](CC(N)=O)NC(=O)C(C)(C)NC(=O)[C@H](CO)NC(=O)[C@H](CO)NC(=O)[C@H](Cc1c[nH]cn1)NC(=O)[C@@H](NC(=O)[C@H](CC(C)C)NC(=O)[C@H](Cc1ccccc1)NC(=O)[C@H](CC(N)=O)NC(=O)[C@H](C)NC(=O)[C@H](CC(C)C)NC(=O)[C@H](CCCNC(=N)N)NC(=O)[C@H](CCC(N)=O)NC(=O)[C@@H](NC(=O)[C@H](C)NC(=O)[C@@H]1CSSC[C@H](NC(=O)[C@@H](N)CCCCNC(=O)CC[C@H](NC(=O)CCCCCCCCCCCCCCCCC(=O)O)C(=O)O)C(=O)N[C@@H](CC(N)=O)C(=O)N[C@@H]([C@@H](C)O)C(=O)N[C@@H](C)C(=O)N[C@@H]([C@@H](C)O)C(=O)N1)[C@@H](C)O)C(C)C)C(=O)N[C@@H](CC(C)C)C(=O)N1CCC[C@H]1C(=O)N1CCC[C@H]1C(=O)N[C@H](C(=O)N[C@@H](CC(N)=O)C(=O)N[C@H](C(=O)NCC(=O)N[C@@H](CO)C(=O)N[C@@H](CCCNC(=N)N)C(=O)N[C@H](C(=O)N[C@@H](Cc1ccc(O)cc1)C(N)=O)[C@@H](C)O)C(C)C)[C@@H](C)O

Key:
[1] = target: T1, human amylin receptor (calcitonin …); test: cell-based or functional assay
[2] = target: T2, human calcitonin receptor; test: cell-based or functional assay

Binder	EC50 (cAMP production) [1]	Ratio (EC50 hCTR / EC50 hAMYR3) [1]	EC50 (cAMP production) [2]
B1	0.157 nM	5	0.809 nM
B2	0.096 nM	11	1.03 nM
B3	0.099 nM	7	0.654 nM
B4	0.167 nM	43	7.25 nM
B5	0.076 nM	5	0.375 nM
B6	0.149 nM	9	1.28 nM
